Measurements: PMC10665551

Experiments:
[1] = target: Pichia pastoris recombinant Oo-ASP-1 (Ostertagia ostertagi); assay: reducing and non-reducing SDS-PAGE + LC-MS of tryptic peptides; denaturing SDS-PAGE with and without β-mercaptoethanol; 1D and 2D LC-MS of reduced (DTT/IAA) and non-reduced tryptic digests to map intra- and intermolecular disulphide bridges; disulphide-linked dimer
[2] = target: native Oo-ASP-1 (activation-associated secreted protein 1 of Ostertagia ostertagi) (Ostertagia ostertagi); assay: as above

Substance	stoichiometry N [1]	stoichiometry N [2]
Pichia pastoris recombinant Oo-ASP-1 (natural protein)	2	
native Oo-ASP-1 (activation-associated secreted protein 1 of Ostertagia ostertagi) (natural protein)		2
